# According to US20150307555A1:
# Assays:
# [1] = target: human V2 receptor (human) (UniProt P30518); test: cell-based or functional assay
# [2] = target: human V1b receptor (human) (UniProt P47901); test: cell-based or functional assay
# human V1b receptor (human), sequence (P47901 whole entry): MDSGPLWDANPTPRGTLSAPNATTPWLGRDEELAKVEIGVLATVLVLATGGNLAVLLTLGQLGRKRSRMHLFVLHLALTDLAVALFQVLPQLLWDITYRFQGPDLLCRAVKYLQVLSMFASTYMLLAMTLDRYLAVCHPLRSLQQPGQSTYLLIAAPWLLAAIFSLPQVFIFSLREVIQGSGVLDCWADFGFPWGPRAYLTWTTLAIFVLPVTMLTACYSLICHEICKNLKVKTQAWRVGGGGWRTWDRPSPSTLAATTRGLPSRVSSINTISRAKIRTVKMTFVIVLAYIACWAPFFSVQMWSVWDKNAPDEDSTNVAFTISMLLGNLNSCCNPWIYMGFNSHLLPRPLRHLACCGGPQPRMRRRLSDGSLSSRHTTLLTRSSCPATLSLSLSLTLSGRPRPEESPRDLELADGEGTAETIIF
EC50 hV2-R [1],% Efficacy hV1b-R [2],% Efficacy hV2-R [1],Substance
0.04 nM,–,–,Arginine Vasopressin (peptide; unit assumed)
–,100%,100%,"Desmopressin, [1-deamino, 8-D-arginine]-vasopressin (peptide)"
–,–,89%,[Val4]dDAVP (peptide)
0.05 nM,–,–,[Val4]dDAVP (peptide; unit assumed)
